Data published in patent publication US20110098217A1 (INDIANA UNIVERSITY RESEARCH AND TECHNOLOGY, published 2011).
Where “and” joins values, the source holds several entries; their conditions need not be identical. Equal values may be shown once. Read-outs that look alike come from different tables or passages of the source. Bridge positions count the residues as written; N and C are the ends. Square brackets hold non-standard residues; d marks the D form. Ends that are not written are not given here. Abu(4-SO3H) = N[C@@H](CCS(=O)(=O)O)C(=O)O; PhLac = O=C(O)[C@@H](O)Cc1ccccc1

Tests used:
[1] = target: human GLP-1 receptor (human) (UniProt P43220); assay: cell-based or functional assay
human GLP-1 receptor (human), sequence (P43220 24-463): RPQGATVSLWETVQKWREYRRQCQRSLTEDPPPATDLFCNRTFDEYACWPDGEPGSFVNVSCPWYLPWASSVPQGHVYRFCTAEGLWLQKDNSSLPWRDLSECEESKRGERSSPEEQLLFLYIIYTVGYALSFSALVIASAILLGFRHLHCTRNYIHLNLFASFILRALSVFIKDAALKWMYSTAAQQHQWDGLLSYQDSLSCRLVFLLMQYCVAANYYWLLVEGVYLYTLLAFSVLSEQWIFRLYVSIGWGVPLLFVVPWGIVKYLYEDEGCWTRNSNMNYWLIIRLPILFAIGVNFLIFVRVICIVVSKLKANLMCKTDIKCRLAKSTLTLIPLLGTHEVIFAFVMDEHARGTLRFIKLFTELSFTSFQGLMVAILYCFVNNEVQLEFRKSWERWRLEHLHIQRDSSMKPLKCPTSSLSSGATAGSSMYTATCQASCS

[2] = target: human glucagon receptor (human) (UniProt P47871); assay: cell-based or functional assay
human glucagon receptor (human), sequence (P47871 26-477): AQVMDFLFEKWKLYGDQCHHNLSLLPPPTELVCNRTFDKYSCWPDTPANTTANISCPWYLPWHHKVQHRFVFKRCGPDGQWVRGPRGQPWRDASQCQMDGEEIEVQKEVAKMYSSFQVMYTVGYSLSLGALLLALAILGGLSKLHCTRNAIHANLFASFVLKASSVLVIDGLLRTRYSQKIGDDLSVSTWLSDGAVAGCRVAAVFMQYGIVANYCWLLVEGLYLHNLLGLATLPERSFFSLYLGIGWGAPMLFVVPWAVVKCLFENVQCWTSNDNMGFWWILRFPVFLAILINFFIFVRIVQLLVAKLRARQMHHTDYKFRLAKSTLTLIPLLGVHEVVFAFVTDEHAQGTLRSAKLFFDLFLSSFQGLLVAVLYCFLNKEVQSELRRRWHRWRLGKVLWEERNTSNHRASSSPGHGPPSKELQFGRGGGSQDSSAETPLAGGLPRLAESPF

human glucagon receptor [3] = target: T1, human glucagon receptor (human, UniProt P47871 26-477); assay: cell-based or functional assay
T1 sequence (P47871 26-477): as above

human GLP-1 receptor [4] = target: T2, human GLP-1 receptor (human, UniProt P43220 24-463); assay: cell-based or functional assay
Target sequence in this assay (P43220 24-463): as the sequence (P43220 24-463) above

human glucagon receptor [5] = target: T1, human glucagon receptor; assay: cell-based or functional assay; remark: listed apart in the source
human glucagon receptor [6] = target: T1, human glucagon receptor; assay: cell-based or functional assay; remark: listed apart in the source
human glucagon receptor [7] = target: T1, human glucagon receptor; assay: cell-based or functional assay; remark: listed apart in the source
human GLP-1 receptor [8] = target: T2, human GLP-1 receptor; assay: cell-based or functional assay; remark: listed apart in the source
human glucagon receptor [9] = target: T1, human glucagon receptor; assay: cell-based or functional assay; remark: listed apart in the source
human glucagon receptor [10] = target: T1, human glucagon receptor; assay: SPA competition vs 125I-glucagon, receptor membranes
human glucagon receptor [11] = target: T1, human glucagon receptor; assay: as above; remark: listed apart in the source
human glucagon receptor [12] = target: T1, human glucagon receptor; assay: as above; remark: listed apart in the source
human glucagon receptor [13] = target: T1, human glucagon receptor; assay: cell-based or functional assay; remark: listed apart in the source
human glucagon receptor [14] = target: T1, human glucagon receptor; assay: cell-based or functional assay; remark: listed apart in the source
human glucagon receptor [15] = target: T1, human glucagon receptor; assay: cell-based or functional assay; remark: listed apart in the source
human glucagon receptor [16] = target: T1, human glucagon receptor; assay: SPA competition vs 125I-glucagon, receptor membranes; remark: listed apart in the source
human glucagon receptor [17] = target: T1, human glucagon receptor; assay: as above; remark: listed apart in the source
human glucagon receptor [18] = target: T1, human glucagon receptor; assay: as above; remark: listed apart in the source
human glucagon receptor [19] = target: T1, human glucagon receptor; assay: cell-based or functional assay; remark: listed apart in the source
human GLP-1 receptor [20] = target: T2, human GLP-1 receptor; assay: cell-based or functional assay; remark: listed apart in the source
human glucagon receptor [21] = target: T1, human glucagon receptor; assay: cell-based or functional assay; remark: listed apart in the source
human GLP-1 receptor [22] = target: T2, human GLP-1 receptor; assay: cell-based or functional assay; remark: listed apart in the source
human glucagon receptor [23] = target: T1, human glucagon receptor; assay: cell-based or functional assay; remark: listed apart in the source
human GLP-1 receptor [24] = target: T2, human GLP-1 receptor; assay: cell-based or functional assay; remark: listed apart in the source
human glucagon receptor [25] = target: T1, human glucagon receptor; assay: cell-based or functional assay; remark: listed apart in the source
human GLP-1 receptor [26] = target: T2, human GLP-1 receptor; assay: cell-based or functional assay; remark: listed apart in the source
human glucagon receptor [27] = target: T1, human glucagon receptor; assay: cell-based or functional assay; remark: listed apart in the source
human GLP-1 receptor [28] = target: T2, human GLP-1 receptor; assay: cell-based or functional assay; remark: listed apart in the source
human GLP-1 receptor [29] = target: T2, human GLP-1 receptor; assay: cell-based or functional assay; remark: listed apart in the source
human glucagon receptor [30] = target: T1, human glucagon receptor; assay: cell-based or functional assay; remark: listed apart in the source
human GLP-1 receptor [31] = target: T2, human GLP-1 receptor; assay: cell-based or functional assay; remark: listed apart in the source
human glucagon receptor [32] = target: T1, human glucagon receptor; assay: cell-based or functional assay; remark: listed apart in the source
human GLP-1 receptor [33] = target: T2, human GLP-1 receptor; assay: cell-based or functional assay; remark: listed apart in the source
[34] = target: human glucagon receptor (human) (UniProt P47871); assay: cell-based or functional assay; remark: listed apart in the source
[35] = target: human glucagon receptor (human) (UniProt P47871); assay: cell-based or functional assay; remark: listed apart in the source
[36] = target: human GLP-1 receptor (human) (UniProt P43220); assay: cell-based or functional assay; remark: listed apart in the source
[37] = target: human GLP-1 receptor (human) (UniProt P43220); assay: cell-based or functional assay; remark: listed apart in the source
human glucagon receptor [38] = target: T1, human glucagon receptor; assay: cell-based or functional assay; remark: listed apart in the source
human GLP-1 receptor [39] = target: T2, human GLP-1 receptor; assay: cell-based or functional assay; remark: listed apart in the source
human glucagon receptor [40] = target: T1, human glucagon receptor; assay: cell-based or functional assay; remark: listed apart in the source
human GLP-1 receptor [41] = target: T2, human GLP-1 receptor; assay: cell-based or functional assay; remark: listed apart in the source
human glucagon receptor [42] = target: T1, human glucagon receptor; assay: cell-based or functional assay; remark: listed apart in the source
human glucagon receptor [43] = target: T1, human glucagon receptor; assay: SPA competition vs 125I-glucagon, receptor membranes; remark: listed apart in the source
human GLP-1 receptor [44] = target: T2, human GLP-1 receptor; assay: cell-based or functional assay; remark: listed apart in the source

## [E9, E16K20(lactam)]G(6-39) (peptide)
[1]
  GLP-1 EC50: 36 nM
  GLP-1 agonism EC50: 36.4 nM
[2]
  Glu IC50: 42 nM
  Glucagon IC50: 42 nM
  Glucagon antagonism IC50 (inhibit 0.2-0.8 nM glucagon): 42 nM

## [d-Cys^5(20kDaPEG), E^9]Glucagon(aa5-29)-NH2 (peptide)
Human glucagon receptor [3]
  IC50 (cAMP, inhibit 0.2 mM Glucagon): 14.8 µM

## [E9, E16, K20] G(6-39) (peptide)
[1]
  GLP-1 agonism EC50: 1040 nM

## [PLA6, E9, K12E16(Lactam)] glucagon(6-39) (peptide)
Human glucagon receptor [3]
  Glu IC50: 72 nM
  Glucagon IC50: 72 nM
Human GLP-1 receptor [4]
  GLP-1 EC50: 6 nM

B1: [PLA^6, E^9]Glucagon(aa6-29)-NH2 (peptide)
peptide: [PhLac]TSEYSKYLDSRRAQDFVQWLMNT-NH2
notes: also called [PLA6, E9]; G(6-29); [PLA6, E9]Glucagon(6-29)
Human glucagon receptor [5]
  IC50 (cAMP, inhibit 0.1 nM Glucagon): 2.39 nM
  IC50 (cAMP, inhibit 0.2 nM Glucagon): 42.4 nM
Human glucagon receptor [6]
  IC50 (cAMP, inhibit 0.8 mM Glucagon): 64.8 nM
Human glucagon receptor [7]
  Glucagon antagonism IC50 (inhibit 0.8 nM glucagon): 94.7 nM
Human GLP-1 receptor [8]
  GLP-1 agonism EC50: 901 nM
Human glucagon receptor [9]
  Glucagon antagonism IC50 (inhibit 0.5nM G): 23.8 nM
Human glucagon receptor [10]
  fold increase of affinity relative to the native Phe6 analog: 3 fold
Human glucagon receptor [11]
  IC50: 12.3 nM
Human glucagon receptor [12]
  IC50: 12.3 nM

B2: [Glu^9]Glucagon(aa6-29)-NH2 (peptide)
peptide: FTSEYSKYLDSRRAQDFVQWLMNT-NH2
notes: also called [E^9]Glucagon(aa6-29)-NH2; peptide no; 11
Human glucagon receptor [13]
  cAMP Inhibition IC50: 97 nM
Human glucagon receptor [14]
  cAMP (I/A)50 inhibition index: 486
  cAMP pA2: 7.16
Human glucagon receptor [15]
  cAMP IC50: 97.2 nM
  cAMP pA2: 7.16
Human glucagon receptor [16]
  IC50: 36 nM
Human glucagon receptor [17]
  IC50: 36.4 nM
Human glucagon receptor [18]
  IC50: 36.4 nM

B3: [PLA^6, D^9, D^28] Glucagon(aa6-29)-NH2 (peptide)
peptide: FTSDYSKYLDSRRAQDFVQWLMDT
modifications: PLA at position 6; C-terminal amide
notes: also called [PLA6, D9, D28]Glucagon(6-29)
Human glucagon receptor [5]
  IC50 (cAMP, inhibit 0.1 nM Glucagon): 1.32 nM
Human glucagon receptor [9]
  Glucagon antagonism IC50 (inhibit 0.5nM G): 9.03 nM
Human glucagon receptor [11]
  IC50: 9 nM

## [PhLac]TSDYSKYLDERRAKDFVQWLMDT-NH2 (lactam 11-15) [[PLA6, E16K20(lactam), D28]G(6-29)]
Human glucagon receptor [19]
  Glucagon IC50: 6 nM
Human GLP-1 receptor [20]
  GLP-1 EC50: 4 nM
Human glucagon receptor [21]
  Glucagon antagonism IC50 (inhibit 0.2-0.8 nM glucagon): 11.7 nM and 5.5 nM
Human GLP-1 receptor [22]
  GLP-1 agonism EC50: 6.9 nM and 4.2 nM
Human glucagon receptor [23]
  Glucagon antagonism IC50 (inhibit 0.2-0.8 nM glucagon): 11.7 nM and 5.5 nM
Human GLP-1 receptor [24]
  GLP-1 agonism EC50: 6.9 nM and 4.2 nM
Human glucagon receptor [25]
  Glucagon antagonism IC50 (inhibit 0.8 nM glucagon): 13.7 nM
Human GLP-1 receptor [26]
  GLP-1 agonism EC50: 10.6 nM
Human glucagon receptor [27]
  Glucagon antagonism IC50 (inhibit 0.8 nM glucagon): 13.7 nM
Human GLP-1 receptor [28]
  GLP-1 agonism EC50: 10.6 nM
Human GLP-1 receptor [29]
  GLP-1 agonism EC50: 20.7 nM
Human glucagon receptor [30]
  Glucagon antagonism IC50 (inhibit 0.4 nM glucagon): 4.14 nM and 7.99 nM
Human GLP-1 receptor [31]
  GLP-1 agonism EC50: 48 nM
Human glucagon receptor [7]
  Glucagon antagonism IC50 (inhibit 0.8 nM glucagon): 20.3 nM
Human GLP-1 receptor [8]
  GLP-1 agonism EC50: 18.2 nM

## GTFTSEYSKYLDSRRAQDFVQWLMNT-NH2 (also called peptide no) [[Glu^9]Glucagon(aa4-29)-NH2]
Human glucagon receptor [13]
  cAMP Inhibition IC50: 128 nM
Human glucagon receptor [14]
  cAMP pA2: 7.05

## HSQGTFTSDYSRYLDSRRAQDFVQWLMNK [Glucagon R12 K29]
Human glucagon receptor [32]
  cAMP Induction EC50: 0.81 nM
Human GLP-1 receptor [33]
  cAMP Induction EC50: 0.41 nM

## FTSEYSKYLDERRAQDFVQWLMNTGPSSGAPPPS (C-terminal amide) [[E9, E16]G(6-39)]
[34]
  Glu IC50: 762 nM
  Glucagon antagonism IC50 (inhibit 0.2-0.8 nM glucagon): 762 nM
[35]
  Glucagon IC50: 762 nM

## FTSEYSKYLDERRAQDFVQWLMNTGPSSGAPPPS (lactam bridge Lys12-Glu16 (native glucagon numbering); C-terminal amide) [E9, K12E16(lactam) glucagon(6-39)]
[36]
  GLP-1 EC50: 63 nM
[34]
  Glu IC50: 2010 nM
[35]
  Glucagon IC50: 2010 nM

## FTSDYSKYLDERRAQDFVQWLMNTGPSSGAPPPS (lactam bridge Lys12-Glu16; C-terminal amide) [D9, K12E16(Lactam) glucagon(6-39)]
[36]
  GLP-1 EC50: 119 nM
[34]
  Glu IC50: 828 nM
[37]
  GLP-1 EC50: 18 nM
[35]
  Glucagon IC50: 828 nM

B4: [PLA6, K12E16(lactam), D28]G(6-29) (peptide)
peptide: [PhLac]TSDYSKYLDERRAQDFVQWLMDT-NH2
modifications: lactam 7-11; N-terminus assumed
SMILES: CSCC[C@H](NC(=O)[C@H](CC(C)C)NC(=O)[C@H](Cc1c[nH]c2ccccc12)NC(=O)[C@H](CCC(N)=O)NC(=O)[C@@H](NC(=O)[C@H](Cc1ccccc1)NC(=O)[C@H](CC(=O)O)NC(=O)[C@H](CCC(N)=O)NC(=O)[C@H](C)NC(=O)[C@H](CCCNC(=N)N)NC(=O)[C@H](CCCNC(=N)N)NC(=O)[C@@H]1CCC(=O)NCCCC[C@H](NC(=O)[C@H](CO)NC(=O)[C@H](Cc2ccc(O)cc2)NC(=O)[C@H](CC(=O)O)NC(=O)[C@H](CO)NC(=O)[C@@H](NC(=O)[C@@H](O)Cc2ccccc2)[C@@H](C)O)C(=O)N[C@@H](Cc2ccc(O)cc2)C(=O)N[C@@H](CC(C)C)C(=O)N[C@@H](CC(=O)O)C(=O)N1)C(C)C)C(=O)N[C@@H](CC(=O)O)C(=O)N[C@H](C(N)=O)[C@@H](C)O
Human glucagon receptor [38]
  Glucagon IC50: 63 nM
Human GLP-1 receptor [39]
  GLP-1 EC50: 177 nM
Human glucagon receptor [19]
  Glucagon IC50: 13 nM
Human GLP-1 receptor [20]
  GLP-1 EC50: 21 nM
Human glucagon receptor [21]
  Glucagon antagonism IC50 (inhibit 0.2-0.8 nM glucagon): 58.3 nM
Human GLP-1 receptor [22]
  GLP-1 agonism EC50: 38.5 nM
Human glucagon receptor [23]
  Glucagon antagonism IC50 (inhibit 0.2-0.8 nM glucagon): 58.3 nM
Human GLP-1 receptor [24]
  GLP-1 agonism EC50: 38.5 nM
Human glucagon receptor [40]
  Glucagon antagonism IC50 (inhibit 0.2-0.8 nM glucagon): 58.3 nM
Human GLP-1 receptor [41]
  GLP-1 agonism EC50: 38.5 nM

B5: [hCys^9(SO3H)]Glucagon(aa6-29)-NH2 (peptide)
peptide: FTS[Abu(4-SO3H)]YSKYLDSRRAQDFVQWLMNT-NH2
notes: also called [hCys(SO3)9]Glucagon(aa6-29)-NH2
Human glucagon receptor [42]
  cAMP IC50: 133 nM
  cAMP pA2: 7.16
Human glucagon receptor [15]
  cAMP IC50: 133 nM
  cAMP pA2: 7.16
Human glucagon receptor [43]
  IC50: 59.1 nM
Human glucagon receptor [18]
  IC50: 59.1 nM

## SQGTXTSEYSKYLDSRRAQDFVQWLMNT (depsipeptide bond between Thr5 and PLA6; C-terminal amide) [[Thr5-O-PLA6,E9]Glucagon(2-29)]
Human glucagon receptor [9]
  Glucagon antagonism IC50 (inhibit 0.5nM G): 6.49 nM
Human GLP-1 receptor [44]
  GLP-1 agonism EC50: 1310 nM
